Data from article PMC5409509.

Target: Yeast wild-type Mlh1-Mlh3 (yeast (S. cerevisiae)) (UniProt P38920)

endonuclease activity on circular dsDNA: ratio of Mlh1-Mlh3 to 2.7 kb plasmid at the optimum of activity (Mlh1-Mlh3 per 2.7 kb plasmid): 100
B1: Yeast wild-type Mlh1-Mlh3 (complex)
chain 1: MSLRIKALDASVVNKIAAGEIIISPVNALKEMMENSIDANATMIDILVKEGGIKVLQITDNGSGINKADLPILCERFTTSKLQKFEDLSQIQTYGFRGEALASISHVARVTVTTKVKEDRCAWRVSYAEGKMLESPKPVAGKDGTTILVEDLFFNIPSRLRALRSHNDEYSKILDVVGRYAIHSKDIGFSCKKFGDSNYSLSVKPSYTVQDRIRTVFNKSVASNLITFHISKVEDLNLESVDGKVCNLNFISKKSISPIFFINNRLVTCDLLRRALNSVYSNYLPKGNRPFIYLGIVIDPAAVDVNVHPTKREVRFLSQDEIIEKIANQLHAELSAIDTSRTFKASSISTNKPESLIPFNDTIESDRNRKSLRQAQVVENSYTTANSQLRKAKRQENKLVRIDASQAKITSFLSSSQQFNFEGSSTKRQLSEPKVTNVSHSQEAEKLTLNESEQPRDANTINDNDLKDQPKKKQKLGDYKVPSIADDEKNALPISKDGYIRVPKERVNVNLTSIKKLREKVDDSIHRELTDIFANLNYVGVVDEERRLAAIQHDLKLFLIDYGSVCYELFYQIGLTDFANFGKINLQSTNVSDDIVLYNLLSEFDELNDDASKEKIISKIWDMSSMLNEYYSIELVNDGLDNDLKSVKLKSLPLLLKGYIPSLVKLPFFIYRLGKEVDWEDEQECLDGILREIALLYIPDMVPKVDTSDASLSEDEKAQFINRKEHISSLLEHVLFPCIKRRFLAPRHILKDVVEIANLPDLYKVFERC
chain 2: MSQHIRKLDSDVSERLKSQACTVSLASAVREIVQNSVDAHATTIDVMIDLPNLSFAVYDDGIGLTRSDLNILATQNYTSKIRKMNDLVTMKTYGYRGDALYSISNVSNLFVCSKKKDYNSAWMRKFPSKSVMLSENTILPIDPFWKICPWSRTKSGTVVIVEDMLYNLPVRRRILKEEPPFKTFNTIKADMLQILVMHPMISLNVQYTDKLRINTEVLFRSKNITEGLTKHQQMSQVLRNVFGAIIPPDMLKKVSLKFNEYQIEGIISKMPVGLKDLQFIYINGRRYADSAFQGYVDSLFQAQDFGEKGMSLLKTKSVGKPYRSHPVFILDVRCPQTIDDLLQDPAKKIVKPSHIRTIEPLIVKTIRSFLTFQGYLTPDKSDSSFEIVNCSQKTATLPDSRIQISKRNQVLNSKMKIARINSYIGKPAVNGCRINNSTINYEKIKNIRIDGQKSRLRNKLSSRPYDSGFTEDYDSIGKTITDFSISRSVLAKYEVINQVDKKFILIRCLDQSIHNCPLLVLVDQHACDERIRLEELFYSLLTEVVTGTFVARDLKDCCIEVDRTEADLFKHYQSEFKKWGIGYETIEGTMETSLLEIKTLPEMLTSKYNGDKDYLKMVLLQHAHDLKDFKKLPMDLSHFENYTSVDKLYWWKYSSCVPTVFHEILNSKACRSAVMFGDELTRQECIILISKLSRCHNPFECAHGRPSMVPIAELK
